Measured values as given in patent US20170319643A1.

Target: elastase (porcine pancreas, Sigma Aldrich) (porcine) (UniProt P00772)
Assay: cell-based or functional assay

Sequence of alpha-1-antitrypsin enriched native human HDL (P01009 25-418): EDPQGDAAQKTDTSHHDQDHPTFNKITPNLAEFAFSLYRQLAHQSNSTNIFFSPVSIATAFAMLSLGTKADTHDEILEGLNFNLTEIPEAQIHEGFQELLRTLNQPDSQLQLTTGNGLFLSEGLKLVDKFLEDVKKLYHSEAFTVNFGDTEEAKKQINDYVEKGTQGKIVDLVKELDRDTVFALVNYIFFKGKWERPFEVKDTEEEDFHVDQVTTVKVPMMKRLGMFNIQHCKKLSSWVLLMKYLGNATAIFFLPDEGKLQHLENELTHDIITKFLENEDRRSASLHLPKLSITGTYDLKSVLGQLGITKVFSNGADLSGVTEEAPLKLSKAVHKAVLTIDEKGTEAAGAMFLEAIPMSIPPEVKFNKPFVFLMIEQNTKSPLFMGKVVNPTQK
Sequence of elastase (porcine pancreas, Sigma Aldrich) (porcine) (P00772 27-266): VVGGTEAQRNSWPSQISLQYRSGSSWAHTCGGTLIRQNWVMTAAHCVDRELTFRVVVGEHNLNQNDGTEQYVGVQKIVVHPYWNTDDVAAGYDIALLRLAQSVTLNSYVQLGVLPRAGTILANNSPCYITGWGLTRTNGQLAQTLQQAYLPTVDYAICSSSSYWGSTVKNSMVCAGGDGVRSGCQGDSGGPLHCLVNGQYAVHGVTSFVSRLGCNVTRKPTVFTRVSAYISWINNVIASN

## alpha-1-antitrypsin enriched native human HDL (from UniProt P01009 25-418)
  elastase induced TNF-α production by J774 macrophages, change compared to PBS pretreatment: -97%
